We go through 4 molecules from patent publication US20180282418A1 (CANCER RESEARCH TECHNOLOGY, published 2018).

First the molecules themselves.
B1: CLEC14A with regions 97-108 of CD141 (receptor)
chain: EHPTADRAGCSASGACYSLHHATMKRQAAEEACILRGGALSTVRAGAELRAVLALLRAGPGPGGGSKDLLFWVALQLPPGCGDPKRLPLRGFSWLSSDPGGLESDTLQWVEEPQRSCTARRCAVLQATGGVEPAGWKEMRCHLRANGYLCKYQFEVLCPAPRPGAASNLSYRAPFQLHSAALDFSPPGTEVSALCRGQLPISVTCIADEIGARWDKLSGDVLCPCPGRYLRAGKCAELPNCLDDLGGFACECATGFELGKDGRSCVTSGEGQPTLGGTGVPTRRPPATATSPVPQRTWPIRVDEKLGETPLVPEQDNSVTSIPEIPRWGSQSTMSTLQMSLQAESKATITPSGSVISKFNSTTSSATPQAFDSSSAVVFIFVSTAVVVLVILTMTVLGLVKLCFHESPSSQPRKESMGPPGLESDPEPAALGSSSAHCTNNGVKVGDCDLRDRAEGALLAESPLGSSDA
notes: also called this mutant; not shown: C-terminal GFP tag (all constructs have one)

Assay [1] concerns the target T1, full-length human MMRN2 with a His tag overexpressed in HEK293T cells (human, UniProt Q9H8L6 23-949).
T1 construct: Used as lysate of transfected HEK293T cells; also called hMMRN2; MMRN2 protein lysate; not shown: His tag of the pHL-Avitag3 vector
T1 sequence: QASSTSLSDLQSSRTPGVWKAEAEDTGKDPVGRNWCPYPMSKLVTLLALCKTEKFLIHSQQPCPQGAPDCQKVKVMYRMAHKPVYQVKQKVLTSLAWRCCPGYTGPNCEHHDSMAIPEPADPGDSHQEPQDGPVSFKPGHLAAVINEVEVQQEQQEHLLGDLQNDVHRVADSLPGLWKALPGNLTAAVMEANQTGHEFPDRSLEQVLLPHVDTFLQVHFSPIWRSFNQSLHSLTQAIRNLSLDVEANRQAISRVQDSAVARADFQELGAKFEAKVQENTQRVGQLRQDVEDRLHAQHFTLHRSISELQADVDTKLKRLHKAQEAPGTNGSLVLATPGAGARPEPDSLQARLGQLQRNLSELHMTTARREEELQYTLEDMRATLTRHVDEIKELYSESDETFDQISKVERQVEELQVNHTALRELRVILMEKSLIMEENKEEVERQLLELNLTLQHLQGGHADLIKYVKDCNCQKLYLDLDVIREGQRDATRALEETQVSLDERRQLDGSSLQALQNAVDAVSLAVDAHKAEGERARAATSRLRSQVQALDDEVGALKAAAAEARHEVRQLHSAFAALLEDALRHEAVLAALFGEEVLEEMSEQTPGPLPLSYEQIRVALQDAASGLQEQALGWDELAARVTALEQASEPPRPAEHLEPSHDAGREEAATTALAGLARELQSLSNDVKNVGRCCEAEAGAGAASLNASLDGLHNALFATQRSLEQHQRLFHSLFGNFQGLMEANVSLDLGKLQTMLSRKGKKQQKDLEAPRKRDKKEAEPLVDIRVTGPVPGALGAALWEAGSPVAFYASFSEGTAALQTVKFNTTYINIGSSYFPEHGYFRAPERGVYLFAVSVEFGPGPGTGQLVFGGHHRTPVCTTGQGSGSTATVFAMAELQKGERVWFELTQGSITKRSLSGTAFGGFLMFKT
Description: method for MMRN2 not told.

Assay [2] deals with T2, CLEC14A with regions 122-142 of CD141 (human, UniProt Q86T13 22-490).
T2 construct: also called 122-142 chimera; not shown: C-terminal GFP tag (all constructs have one)
T2 sequence: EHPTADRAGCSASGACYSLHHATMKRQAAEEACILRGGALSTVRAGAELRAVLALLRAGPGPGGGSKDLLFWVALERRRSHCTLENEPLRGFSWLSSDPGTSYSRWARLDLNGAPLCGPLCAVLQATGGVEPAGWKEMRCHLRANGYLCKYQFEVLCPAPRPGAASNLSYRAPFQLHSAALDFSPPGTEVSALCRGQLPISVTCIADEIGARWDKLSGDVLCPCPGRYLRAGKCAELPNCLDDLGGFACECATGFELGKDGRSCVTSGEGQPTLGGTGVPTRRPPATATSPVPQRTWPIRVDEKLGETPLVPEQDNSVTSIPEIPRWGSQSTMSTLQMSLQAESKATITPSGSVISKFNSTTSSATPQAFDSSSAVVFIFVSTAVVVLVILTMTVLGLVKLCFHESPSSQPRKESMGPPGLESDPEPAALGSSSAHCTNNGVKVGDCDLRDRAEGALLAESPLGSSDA
Kind of assay: flow cytometry; the filing says the chimera did not fold correctly.

Assay [3] addresses B1. Kind of assay: flow cytometry on HEK293T cells.
In assay [4] the target is Chimera 6 (CLEC14A with SUSHI of CD141) fused to GFP tag. Kind of assay: flow cytometry on GFP-gated HEK293T cells. On the procedure: (§1) FIG. 15—Binding of CRT antibodies was analysed using flow cytometry. All constructs have a C-terminus GFP tag so green cells were gated and stained red. All CRT antibodies bind to CLEC14A wild type with a C terminal GFP tag expressed in HEK293T cells. None of the CRT antibodies bind to wild type thrombomodulin with GFP tag expressed in HEK293T cells.
(§2) Binding of CRT antibodies was analysed using flow cytometry. All constructs have a C-terminus GFP tag so green cells were gated and stained red. All CRT antibodies bind WT CLEC14A and—as expected—none binds to WT CD141 (FIG. 15). In addition, none of the antibodies bound to Chimera 5 (except slight binding by CRT2) and all of the antibodies bind to Chimera 6 (except CRT2) (FIG. 15). This confirms that the binding site of the antibodies CRT1, 3, 4 and 5 and MMRN2 are within the C type lectin domain. It is possible that CRT2 binds on a region between the CTLD and sushi domain.

For assay [5], the target named is T3, wild type thrombomodulin with GFP tag expressed in HEK293T cells (UniProt P07204 19-575).
T3 construct: whole, on cells; also called WT CD141; CD141; not shown: C-terminal GFP tag
Kind of assay: flow cytometry on GFP-gated HEK293T cells. The protocol:
as §1, §2
(In general: Flow cytometry measures light scatter and fluorescence of single cells or particles in a stream.)

In assay [6] the target is T1, full-length human MMRN2 with a His tag …. Kind of assay: far Western blot of HEK293T lysates with MMRN2 protein lysate, non-reduced. The text has this:
FIG. 13—MMRN2 directly binds to either the C-type lectin or sushi domain of CLEC14A under non-reduced conditions. HEK293T cells were mock transfected or transfected with pCS2 vectors containing CLEC14A wild type (WT) or constructs with each major domain deleted (Δ) with an N-terminal HA tag. Upon far western blotting with MMRN2 protein lysate, binding can be seen in all mutants except those missing the C-type lectin domain (CTLD) or the sushi domain. An anti-HA blot was included to show all mutant proteins were expressed.

T3 sequence (P07204 19-575): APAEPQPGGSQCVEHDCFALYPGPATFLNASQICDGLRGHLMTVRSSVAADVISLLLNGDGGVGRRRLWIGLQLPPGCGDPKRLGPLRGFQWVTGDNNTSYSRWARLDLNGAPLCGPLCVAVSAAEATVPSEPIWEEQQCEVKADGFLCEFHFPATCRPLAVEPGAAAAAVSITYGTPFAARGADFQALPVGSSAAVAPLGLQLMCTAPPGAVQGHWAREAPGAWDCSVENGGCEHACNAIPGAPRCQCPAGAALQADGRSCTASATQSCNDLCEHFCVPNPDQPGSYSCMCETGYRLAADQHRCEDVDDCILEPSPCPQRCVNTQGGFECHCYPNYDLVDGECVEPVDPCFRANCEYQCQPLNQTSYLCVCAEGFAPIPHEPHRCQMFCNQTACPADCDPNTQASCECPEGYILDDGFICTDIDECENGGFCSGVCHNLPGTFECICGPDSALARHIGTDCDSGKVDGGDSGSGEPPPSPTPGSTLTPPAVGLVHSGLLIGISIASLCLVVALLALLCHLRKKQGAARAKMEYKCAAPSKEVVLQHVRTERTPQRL

On to B1, for which the binding result in assay [1] is on record as “no binding”.

B2: CLEC14A monoclonal antibody C4 (antibody, V domains shown)
VH: QVQLQQSGAELMKPGASVKISCKATGYTFSSYWIEWVNRRPGHGLEWIGEILPGSGSTNYNEKFKGKATFTADTSSNTAYMQLSSLTSEDSAVYYCARGGDYDEEYYLMDYWGQGTTLTVSS
VL: QIVLTQSPAIMSASPGEKVTMTCSASSSVSYMYWYQQKPGSSPRLLIYDTSNLASGVPVRFSGSGSGTSYSLTISRMEAEDAATYYCQQWSSYPLTFGAGTKLEIKR
notes: Mouse monoclonal antibody raised against murine CLEC14A-Fc; The entries carry cloning residues (N-terminal MA on VH, C-terminal AA on VL); also called CRT4; clone C4
Turning to B2, the binding result in assay [2] was “no binding”; in assay [3] it was “no binding”; in assay [4], “binds”; in assay [5] it was “no binding”.

B3: CLEC14A monoclonal antibody C5 (antibody, V domains shown)
VH: AEVQLQQSGAELMKPGASVKISCKATGYTFSSYWIEWVNQRPGHGLEWIGEILPGSGSTNYNEKFKGKATFTADTSSNTAYMQLSSLTSEDSAVYYCARGGDYDEEYYAMDYWGQGTSVTL
VL: QIVLTQSPAIMSASPGEKVTMTCSASSSVSYMYWYQQKPGSSPRLLIYDTSNLASGVPVRFSGSGSGTSYSLTISRMEAEDGATYYCQQWSSYPLTFGAGTKLELKR
notes: CLEC14A monoclonal antibody; also called CRT5
Turning to B3, the binding result in assay [2], in assay [3] and in assay [5] was “no binding” each time.

B4: HA-CLEC14A (CLEC14A wild type with an N-terminal HA tag) expressed in HEK293T cells (receptor)
chain: EHPTADRAGCSASGACYSLHHATMKRQAAEEACILRGGALSTVRAGAELRAVLALLRAGPGPGGGSKDLLFWVALERRRSHCTLENEPLRGFSWLSSDPGGLESDTLQWVEEPQRSCTARRCAVLQATGGVEPAGWKEMRCHLRANGYLCKYQFEVLCPAPRPGAASNLSYRAPFQLHSAALDFSPPGTEVSALCRGQLPISVTCIADEIGARWDKLSGDVLCPCPGRYLRAGKCAELPNCLDDLGGFACECATGFELGKDGRSCVTSGEGQPTLGGTGVPTRRPPATATSPVPQRTWPIRVDEKLGETPLVPEQDNSVTSIPEIPRWGSQSTMSTLQMSLQAESKATITPSGSVISKFNSTTSSATPQAFDSSSAVVFIFVSTAVVVLVILTMTVLGLVKLCFHESPSSQPRKESMGPPGLESDPEPAALGSSSAHCTNNGVKVGDCDLRDRAEGALLAESPLGSSDA
notes: also called CLEC14A wild type (WT); not shown: N-terminal HA tag
For B4, the binding result in assay [6] was “binds”.
